Measured values: patent US11534461B2, “High affinity merkel cell polyomavirus T antigen-specific TCRS and uses thereof” (priority 2016, dated 2022)
“And” between values parts separate entries of the source, which are not always exact repeats. Equal entries are not always repeated.

T1: Merkel cell polyomavirus T antigen (common to large and small T antigen) peptide on HLA-A*02:01 (human)
T1 peptide: KLLEIAPNC

T2: Merkel cell polyomavirus T antigen KLL epitope homolog (C-terminal cysteine replaced by alanine) peptide on … (human)
T2 peptide: KLLEIAPNA

T3: Merkel cell polyomavirus T antigen (common to large and small T antigen) peptide on HLA-A*02:01 (human)
T3 peptide: KLLEIAPNC

B1: w876 clonotype 27 (TCR)
alpha TRAV3*01 TRAJ11*01 CDR3: CALTGYSTLTF
beta TRBV19*01 TRBJ2-1*01 CDR3: CASRSQLAVLNEQFF
B2: w876 clonotype 1 (TCR)
alpha TRAV12-1*01 TRAJ45*01 CDR3: CVVGEYSGGGADGLTF
beta TRBV28*01 TRBJ2-1*01 CDR3: CAIRAGASYNEQFF
B3: w876 clonotype 17 (TCR)
alpha TRAV12-1*01 TRAJ37*02 CDR3: CVVYGSSNTGKLIF
beta TRBV7-2*04 TRBJ2-1*01 CDR3: CASSLAGLANNEQFF
B4: w678 clonotype 3 (TCR)
alpha TRAV12-1*01 TRAJ45*01 CDR3: CVVATYSGGGADGLTF
beta TRBV19*01 TRBJ2-1*01 CDR3: CASSIIAGSSYNEQFF
B5: w876 clonotype 21 (TCR)
alpha TRAV3*01 TRAJ40*01 CDR3: CAVRDNSGTYKYIF
beta TRBV13*02 TRBJ2-1*01 CDR3: CASSSGTSGGLTYNEQFF
B6: w876 clonotype 10 (TCR)
alpha TRAV12-1*01 TRAJ37*02 CDR3: CVVYGSSNTGKLIF
beta TRBV10-3*01 TRBJ2-2*01 CDR3: CAIRRQDQNTGELFF
B7: w876 clonotype 5 (TCR)
alpha TRAV38-1*01 TRAJ23*01 CDR3: CAYNQGGKLIF
beta TRBV10-2*01 TRBJ2-2*01 CDR3: CASSVLNTGELFF
B8: w876 clonotype 23 (TCR)
alpha TRAV12-3*01 TRAJ57*01 CDR3: CAMSVAQGGSEKLVF
beta TRBV6-6*01 TRBJ2-7*01 CDR3: CASSYQIGLSYEQYF
B9: MCC1H (TCR, V domains shown)
Valpha: QQQVKQSPQSLIVQKGGISIINCAYENTAFDYFPWYQQFPGKGPALLIAIRPDVSEKKEGRFTISFNKSAKQFSLHIMDSQPGDSATYFCAVPNTGNQFYFGTGTSLTVIP
Vbeta: GAGVSQSPRYKVAKRGQDVALRCDPISGHVSLFWYQQALGQGPEFLTYFQNEAQLDKSGLPSDRFFAERPEGSVSTLKIQRTQQEDSAVYLCASSLIAGLSYEQYFGPGTRLTVT
B10: w876 clonotype 29 (TCR)
alpha TRAV12-1*01 TRAJ3*01 CDR3: CVVPLYSSASKIIF
beta TRBV10-2*01 TRBJ2-2*01 CDR3: CASSVLNTGELFF
B11: w876 clonotype 11 (TCR)
alpha TRAV12-1*01 TRAJ45*01 CDR3: CVVYTGYSGGGADGLTF
beta TRBV10-3*01 TRBJ2-2*01 CDR3: CAIHEGDSNTGELFF
B12: w876 clonotype 26 (TCR)
alpha TRAV12-1*01 TRAJ45*01 CDR3: CVVYTGYSGGGADGLTF
beta TRBV13*02 TRBJ2-1*01 CDR3: CASSSGTSGGLNYNEQFF
B13: w876 clonotype 4 (TCR)
alpha TRAV12-1*01 TRAJ45*01 CDR3: CVVYTGYSGGGADGLTF
beta TRBV10-2*01 TRBJ2-2*01 CDR3: CASSVLNTGELFF
B14: w876 clonotype 20 (TCR)
alpha TRAV10*01 TRAJ45*01 CDR3: CVVSAGINGADGLTF
beta TRBV12-4*01 TRBJ2-1*01 CDR3: CASSPWDEQFF
B15: w876 clonotype 14 (TCR)
alpha TRAV12-1*01 TRAJ27*01 CDR3: CVVPSAGKSTF
beta TRBV2*03 TRBJ2-5*01 CDR3: CASSEFAGQETQYF
B16: w830 clonotype 2 (TCR)
alpha TRAV38-1*01 TRAJ27*01 CDR3: CALTSGSRLTF
beta TRBV19*01 TRBJ1-5*01 CDR3: CASSIMLYSNQPQHF
B17: X389-6 (TCR, V domains shown)
Valpha: ILNVEQSPQSLHVQEGDSTNFTCSFPSSNFYALHWYRWETAKSPEALFVMTLNGDEKKKGRISATLNTKEGYSYLYIKGSQPEDSATYLCAWNTDKLIFGTGTRLQVFP
Vbeta: DAGVIQSPRHEVTEMGQEVTLRCKPISGHNSLFWYRQTMMRGLELLIYFNNNVPIDDSGMPEDRFSAKMPNASFSTLKIQPSEPRDSAVYFCASSLAGDRSFGPGTRLTVT
B18: w876 clonotype 18 (TCR)
alpha TRAV14 TRAJ13*01 CDR3: CAMREAQSGGYQKVTF
beta TRBV12-4*01 TRBJ2-3*01 CDR3: CASSFGSGTKDTQYF
B19: w830 clonotype 4 (TCR)
alpha TRAV12-1*01 TRAJ43*01 CDR3: CVLNNNDMRF
beta TRBV19*01 TRBJ1-5*01 CDR3: CASSILGASNQPQHF
B20: w678 clonotype 5 (TCR)
alpha TRAV38-1*01 TRAJ43*01 CDR3: CAFRVSHDMRF
beta TRBV10-2*01 TRBJ2-3*01 CDR3: CASSSGNPSTDTQYF
B21: MCC1 (TCR, V domains shown)
Valpha: RKEVEQDPGPFNVPEGATVAFNCTYSNSASQSFFWYRQDCRKEPKLLMSVYSSGNEDGRFTAQLNRASQYISLLIRDSKLSDSATYLCVVATYSGGGADGLTFGKGTHLIIQP
Vbeta: DAGITQSPRYKITETGRQVTLMCHQTWSHSYMFWYRQDLGHGLRLIYYSAAADITDKGEVPDGYVVSRSKTENFPLTLESATRSQTSVYFCASSSGNPSTDTQYFGPGTRLTVL
B22: w876 clonotype 13 (TCR)
alpha TRAV12-1*01 TRAJ45*01 CDR3: CVVTDTSGGGADGLTF
beta TRBV7-2*04 TRBJ2-3*01 CDR3: CASSLAGLAGTDTQYF
B23: w876 clonotype 6 (TCR)
alpha TRAV12-1*01 TRAJ3*01 CDR3: CVVPLYSSASKIIF
beta TRBV6-1*01 TRBJ1-1*01 CDR3: CASSDTPDLNTEAFF
B24: X389-8 (TCR, V domains shown)
Valpha: RKEVEQDPGPFNVPEGATVAFNCTYSNSASQSFFWYRQDCRKEPKLLMSVYSSGNEDGRFTAQLNRASQYISLLIRDSKLSDSATYLCVVTGTGGFKTIFGAGTRLFVKA
Vbeta: GEEVAQTPKHLVRGEGQKAKLYCAPIKGHSYVFWYQQVLKNEFKFLISFQNENVFDETGMPKERFSAKCLPNSPCSLEIQATKLEDSAVYFCASSSMSIAAGNTGELFFGEGSRLTVL
B25: w683 clonotype 2 (TCR)
alpha TRAV12-1*01 TRAJ43*01 CDR3: CVLNNNDMRF
beta TRBV6-5*01 TRBJ1-2*01 CDR3: CASRSQNYYGYTF
B26: w683 clonotype 1 (TCR)
alpha TRAV12-1*01 TRAJ45*01 CDR3: CVVALYSGGGADGLTF
beta TRBV6-5*01 TRBJ1-2*01 CDR3: CASRSQNYYGYTF
B27: w876 clonotype 9 (TCR)
alpha TRAV12-1*01 TRAJ43*01 CDR3: CVGNNNDMRF
beta TRBV10-3*01 TRBJ2-2*01 CDR3: CAISARDQNTGELFF
B28: w830 clonotype 5 (TCR)
alpha TRAV12-1*01 TRAJ43*01 CDR3: CVVNANDMRF
beta TRBV10-3*01 TRBJ2-2*01 CDR3: CAIRARDQNTGELFF
B29: w876 clonotype 8 (TCR)
alpha TRAV12-1*01 TRAJ3*01 CDR3: CVVYASKIIF
beta TRBV6-1*01 TRBJ1-1*01 CDR3: CASSDTPDLNTEAFF
B30: w876 clonotype 2 (TCR)
alpha TRAV12-1*01 TRAJ45*01 CDR3: CVVTEYSGGGADGLTF
beta TRBV10-3*01 TRBJ2-2*01 CDR3: CASRGQNTGELFF
B31: w876 clonotype 3 (TCR)
alpha TRAV19*01 TRAJ40*01 CDR3: CALGGGTFTSGTYKYIF
beta TRBV9*02 TRBJ2-2*01 CDR3: CASSVEDYTGELFF
B32: w876 clonotype 12 (TCR)
alpha TRAV3*01 TRAJ40*01 CDR3: CAVRDNSGTYKYIF
beta TRBV7-2*04 TRBJ2-3*01 CDR3: CASSLAGLAGTDTQYF
B33: w830 clonotype 3 (TCR)
alpha TRAV38-1*01 TRAJ34*01 CDR3: CAYPSTDKLIF
beta TRBV19*01 TRBJ1-5*01 CDR3: CASSILGASNQPQHF
B34: w876 clonotype 19 (TCR)
alpha TRAV12-1*01 TRAJ45*01 CDR3: CVVYTGYSGGGADGLTF
beta TRBV10-2*01 TRBJ2-2*01 CDR3: CASSGQNTGELFF
B35: w678 clonotype 1 (TCR)
alpha TRAV12-1*01 TRAJ43*01 CDR3: CVLNNNDMRF
beta TRBV10-3*01 TRBJ2-2*01 CDR3: CAIRQFDANTGELFF
B36: w678 clonotype 2 (TCR)
alpha TRAV38-1*01 TRAJ43*01 CDR3: CAFRVSHDMRF
beta TRBV19*01 TRBJ2-1*01 CDR3: CASSIIAGSSYNEQFF
B37: w876 clonotype 16 (TCR)
alpha TRAV38-1*01 TRAJ23*01 CDR3: CAYNQGGKLIF
beta TRBV19*01 TRBJ2-1*01 CDR3: CASSTLSGTHNEQFF

What was measured:
HLA-A*02 = HLA-A*02 (Homo sapiens, UniProt P04439, D140Y/D185E/D98H/E176V/E277Q/G131W/G231S/I119V/I121R/I166T/I218V/L300P/L318F/N151K/N90K/P208A/P217A/Q86G/Q94H/R138H/R169H/T345S); test: HLA-A*02 binding prediction (ANN, Immune Epitope Database Analysis Resource); details: KLL epitope versus homologs of other polyomaviruses
Description: Residues at positions 15, 18 and 20-22 (underlined) are highly divergent.

MCC = test: Clinical trial: avelumab plus MCPyV-specific T cells and HLA-upregulation (NCT02584829); details: avelumab in addition to MCPyV-specific T cells and HLA-upregulation
[1] = molecular target: T1, Merkel cell polyomavirus T antigen …; test: multimer staining
[2] = molecular target: T2, Merkel cell polyomavirus T antigen KLL …; test: IFN-g ELISA; T2 + peptide titration; T cell clone or line
[3] = molecular target: T1, Merkel cell polyomavirus T antigen …; test: IFN-g ELISA; COS-7 given HLA-A*02:01 and tLTAg plasmids (antigen processed); T cell clone or line
Protocol: IFN-γ in cell culture supernatants was assayed by ELISA according to manufacturer's recommendations (Human IFN gamma ELISA Ready-SET-Go Kit, affymetrix). […] Supernatants were assayed by ELISA as described above. […] After incubating for 24 hours, wells were transfected using FuGENE HD (Promega) at a 6:1 ratio of transfection reagent to DNA with 25 ng HLA-A*02:01 and limiting dilution of pDEST103-GFP-tLTAg (25-0.08 ng) plus irrelevant DNA (pcDNA-6/myc-His C, Gateway) to a total of 25 ng. 48 hours after transfection, 10^4 viable KLL-specific T cells in TCM were added to target wells in duplicate. […] Transfected COS-7 cells were harvested at 48 and 72 hours post-transfection to quantitate transfection efficiency by flow cytometry.

[4] = molecular target: T3, Merkel cell polyomavirus T antigen …; test: multimer staining
[5] = molecular target: T1, Merkel cell polyomavirus T antigen …; test: binding, other

Molecule	binding result [1]	EC50 of peptide [2]	binding result [4]	other results
KLLEIAPNC [MCPyV]				predicted to bind to HLA-A*02 better than homologous peptides (HLA-A*02): approximately 100 ×
avelumab				objective response (MCC; 5 MCC patients): 80%; duration of complete responses (MCC): > 1 year; toxicities with the addition of avelumab (MCC): no increased toxicities; complete responses (CRs) (MCC; of 5 MCC patients): 3 patients
B1	recognises			
B2		0.31 ng/mL		EC50 of tLTAg plasmid DNA [3]: 5600 ng/mL
B3	recognises			
B4		0.022 ng/mL and 0.013 ng/mL		EC50 of tLTAg plasmid DNA [3]: 1000 ng/mL
B5	recognises			
B6	recognises	0.7 ng/mL	recognises	
B7	recognises	0.11 ng/mL	recognises	
B8	recognises			
B9				binding result [5]: recognises
B10		0.12 ng/mL and 0.16 ng/mL		EC50 of tLTAg plasmid DNA [3]: 3300 ng/mL
B11	recognises		recognises	
B12	recognises			
B13		0.31 ng/mL		EC50 of tLTAg plasmid DNA [3]: 14000 ng/mL
B14	recognises			
B15				EC50 of tLTAg plasmid DNA [3]: 5400 ng/mL
B16				EC50 of tLTAg plasmid DNA [3]: 140000 ng/mL
B17				binding result [5]: recognises
B18	recognises		recognises	

Molecule	binding result [1]	EC50 of peptide [2]	binding result [4]	other results
B19	recognises	1.1 ng/mL	recognises	
B20	recognises	0.11 ng/mL and 0.054 ng/mL		
B21	recognises	0.0094 ng/mL and 0.028 ng/mL	recognises	
B22				EC50 of tLTAg plasmid DNA [3]: 3900 ng/mL
B23	recognises	0.015 ng/mL and 0.035 ng/mL	recognises	
B24				binding result [5]: recognises
B25	recognises	0.21 ng/mL	recognises	
B26	recognises		recognises	
B27	recognises	0.12 ng/mL and 0.24 ng/mL	recognises	
B28	recognises		recognises	
B29				EC50 of tLTAg plasmid DNA [3]: 4200 ng/mL
B30	recognises	1.2 ng/mL	recognises	
B31		0.12 ng/mL		EC50 of tLTAg plasmid DNA [3]: 11000 ng/mL
B32	recognises			
B33				EC50 of tLTAg plasmid DNA [3]: 270000 ng/mL
B34	recognises	0.92 ng/mL	recognises	
B35		0.43 ng/mL and 0.5 ng/mL and 0.47 ng/mL		EC50 of tLTAg plasmid DNA [3]: 320 ng/mL
B36	recognises	0.017 ng/mL and 0.012 ng/mL		
B37	recognises	0.12 ng/mL	recognises	
